# Test results taken from paper PMC2756588.
# T1: Nbp2, Q12163
# T1 sequence (Q12163 103-180, looked up): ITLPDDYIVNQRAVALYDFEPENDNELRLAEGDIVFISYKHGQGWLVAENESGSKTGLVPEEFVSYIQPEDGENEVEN
# T2: Pin3, Q06449
# T2 sequence (Q06449 53-122, looked up): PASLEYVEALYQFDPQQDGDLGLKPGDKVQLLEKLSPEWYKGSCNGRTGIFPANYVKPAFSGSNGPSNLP
# T3: Bzz1-2, P38822
# T3 sequence (P38822 568-633, looked up): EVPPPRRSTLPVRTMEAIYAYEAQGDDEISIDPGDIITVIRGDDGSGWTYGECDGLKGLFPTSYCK
# T4: Cdc25, P04821
# T4 sequence (P04821 50-136, looked up): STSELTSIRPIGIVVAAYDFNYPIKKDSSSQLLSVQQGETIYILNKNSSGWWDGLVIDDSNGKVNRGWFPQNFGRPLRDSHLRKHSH
# T5: Myo5, Q04439
# T5 sequence (Q04439 1072-1160, looked up): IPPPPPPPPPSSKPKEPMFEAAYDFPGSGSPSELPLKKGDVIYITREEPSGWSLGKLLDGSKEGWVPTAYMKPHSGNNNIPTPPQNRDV
# T6: Sla1-3, P32790
# T6 sequence (P32790 344-424, looked up): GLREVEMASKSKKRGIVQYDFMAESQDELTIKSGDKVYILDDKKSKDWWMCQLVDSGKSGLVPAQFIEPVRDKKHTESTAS
# T7: Pex13, P80667
# T7 sequence (P80667 295-386, looked up): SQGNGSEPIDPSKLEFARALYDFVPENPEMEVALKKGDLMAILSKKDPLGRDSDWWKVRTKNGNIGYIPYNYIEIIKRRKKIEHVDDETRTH
# T8: Bud14, P27637
# T8 sequence (P27637 247-328, looked up): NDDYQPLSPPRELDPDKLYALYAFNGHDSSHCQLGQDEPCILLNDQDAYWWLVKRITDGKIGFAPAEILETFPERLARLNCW
# T9: Boi2, P39969
# T9 sequence (P39969 32-116, looked up): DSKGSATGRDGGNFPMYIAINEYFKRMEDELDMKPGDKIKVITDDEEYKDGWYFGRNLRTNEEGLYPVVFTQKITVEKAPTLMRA
# T10: Hof1, Q05080
# T10 sequence (Q05080 590-669, looked up): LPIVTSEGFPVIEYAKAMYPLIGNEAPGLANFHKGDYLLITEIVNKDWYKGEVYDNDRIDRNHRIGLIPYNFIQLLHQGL
# T11: Cyk3, Q07533
# T11 sequence (Q07533 1-83, looked up): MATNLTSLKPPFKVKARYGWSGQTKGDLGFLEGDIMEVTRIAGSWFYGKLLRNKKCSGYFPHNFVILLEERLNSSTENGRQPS
# T12: Lsb1, P53281
# T12 sequence (P53281 45-122, looked up): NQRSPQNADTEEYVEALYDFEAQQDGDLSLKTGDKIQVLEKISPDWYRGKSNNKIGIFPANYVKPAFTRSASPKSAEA
# T13: Sla1-2, P32790
# T13 sequence (P32790 60-140, looked up): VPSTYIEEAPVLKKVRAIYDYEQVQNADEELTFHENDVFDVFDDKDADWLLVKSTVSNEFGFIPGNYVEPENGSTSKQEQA
# T14: Lsb3, P43603
# T14 sequence (P43603 385-451, looked up): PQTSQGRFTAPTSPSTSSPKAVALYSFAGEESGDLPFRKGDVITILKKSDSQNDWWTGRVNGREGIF
# T15: Bbc1, P47068
# T15 sequence (P47068 1-78, looked up): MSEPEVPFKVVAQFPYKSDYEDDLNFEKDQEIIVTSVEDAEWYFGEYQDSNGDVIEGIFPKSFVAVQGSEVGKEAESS
# T16: Boi1, P38041
# T16 sequence (P38041 1-86, looked up): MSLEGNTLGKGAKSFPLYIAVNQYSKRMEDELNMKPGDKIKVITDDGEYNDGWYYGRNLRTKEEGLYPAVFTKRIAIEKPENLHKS
# T17: Bzz1-1, P38822
# T17 sequence (P38822 478-572, looked up): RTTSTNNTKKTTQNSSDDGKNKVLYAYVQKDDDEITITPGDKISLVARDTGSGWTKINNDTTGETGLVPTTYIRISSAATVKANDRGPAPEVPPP
# T18: Abp1, P15891
# T18 sequence (P15891 535-592, looked up): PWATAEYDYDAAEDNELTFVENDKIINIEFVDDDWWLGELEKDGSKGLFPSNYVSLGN
# T19: Fus1, P11710
# T19 sequence (P11710 432-512, looked up): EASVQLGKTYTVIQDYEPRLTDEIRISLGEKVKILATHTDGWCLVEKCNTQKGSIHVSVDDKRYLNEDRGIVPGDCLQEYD
# T20: Lsb4, P32793
# T20 sequence (P32793 402-468, looked up): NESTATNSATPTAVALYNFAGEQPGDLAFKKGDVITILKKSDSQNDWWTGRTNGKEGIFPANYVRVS
# T21: Hse1, P38753
# T21 sequence (P38753 208-285, looked up): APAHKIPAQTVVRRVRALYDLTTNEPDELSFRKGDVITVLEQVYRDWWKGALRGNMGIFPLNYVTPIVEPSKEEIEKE
# Target: T1, Nbp2, Q12163
# Experiment: SPOT array
# Settings: median of control spots 357
row,Binder,SPOT intensity
1,GQYRRTIVIPRRFFT,120
2,TKFRISLGLPVGAIM,159
3,MKRSRPSRSIPYTTP,0

# Target: Myo3, P36006
# Experiment: SPOT array
# Settings: median of control spots 468
row,Binder,SPOT intensity
1,GQYRRTIVIPRRFFT,17
2,TKFRISLGLPVGAIM,69
3,MKRSRPSRSIPYTTP,5

# Target: T2, Pin3, Q06449
# Experiment: SPOT array
# Settings: median of control spots 2171
row,Binder,SPOT intensity
1,GQYRRTIVIPRRFFT,18
2,TKFRISLGLPVGAIM,65
3,MKRSRPSRSIPYTTP,34

# Target: T3, Bzz1-2, P38822
# Experiment: SPOT array
# Settings: median of control spots 4538
row,Binder,SPOT intensity
1,GQYRRTIVIPRRFFT,0
2,TKFRISLGLPVGAIM,2
3,MKRSRPSRSIPYTTP,29

# Target: T4, Cdc25, P04821
# Experiment: SPOT array
# Settings: median of control spots 969
row,Binder,SPOT intensity
1,GQYRRTIVIPRRFFT,156
2,TKFRISLGLPVGAIM,108
3,MKRSRPSRSIPYTTP,9

# Target: T5, Myo5, Q04439
# Experiment: SPOT array
# Settings: median of control spots 471
row,Binder,SPOT intensity
1,GQYRRTIVIPRRFFT,2
2,TKFRISLGLPVGAIM,14
3,MKRSRPSRSIPYTTP,2

# Target: T6, Sla1-3, P32790
# Experiment: SPOT array
# Settings: median of control spots 5475
row,Binder,SPOT intensity
1,GQYRRTIVIPRRFFT,58
2,TKFRISLGLPVGAIM,3
3,MKRSRPSRSIPYTTP,35

# Target: T7, Pex13, P80667
# Experiment: SPOT array
# Settings: median of control spots 1341
row,Binder,SPOT intensity
1,GQYRRTIVIPRRFFT,20
2,TKFRISLGLPVGAIM,29
3,MKRSRPSRSIPYTTP,10

# Target: T8, Bud14, P27637
# Experiment: SPOT array
# Settings: median of control spots 956
row,Binder,SPOT intensity
1,GQYRRTIVIPRRFFT,13
2,TKFRISLGLPVGAIM,6
3,MKRSRPSRSIPYTTP,7

# Target: T9, Boi2, P39969
# Experiment: SPOT array
# Settings: median of control spots 1161
row,Binder,SPOT intensity
1,GQYRRTIVIPRRFFT,6
2,TKFRISLGLPVGAIM,0
3,MKRSRPSRSIPYTTP,2

# Target: T10, Hof1, Q05080
# Experiment: SPOT array
# Settings: median of control spots 4086
row,Binder,SPOT intensity
1,GQYRRTIVIPRRFFT,8
2,TKFRISLGLPVGAIM,0
3,MKRSRPSRSIPYTTP,0

# Target: Rvs167, P39743
# Sequence (P39743 419-482): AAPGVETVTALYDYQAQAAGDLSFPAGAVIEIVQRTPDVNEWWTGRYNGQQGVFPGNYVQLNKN
# Experiment: SPOT array
# Settings: median of control spots 2707
row,Binder,SPOT intensity
1,GQYRRTIVIPRRFFT,0
2,TKFRISLGLPVGAIM,0
3,MKRSRPSRSIPYTTP,6

# Target: Bem1-1, P29366
# Sequence (P29366 55-141): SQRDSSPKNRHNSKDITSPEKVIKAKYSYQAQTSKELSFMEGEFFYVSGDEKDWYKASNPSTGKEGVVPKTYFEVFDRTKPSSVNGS
# Experiment: SPOT array
# Settings: median of control spots 4282
row,Binder,SPOT intensity
1,GQYRRTIVIPRRFFT,0
2,TKFRISLGLPVGAIM,0
3,MKRSRPSRSIPYTTP,0

# Target: T11, Cyk3, Q07533
# Experiment: SPOT array
# Settings: median of control spots 1451
row,Binder,SPOT intensity
1,GQYRRTIVIPRRFFT,4
2,TKFRISLGLPVGAIM,0
3,MKRSRPSRSIPYTTP,1

# Target: T12, Lsb1, P53281
# Experiment: SPOT array
# Settings: median of control spots 388
row,Binder,SPOT intensity
1,GQYRRTIVIPRRFFT,19
2,TKFRISLGLPVGAIM,44
3,MKRSRPSRSIPYTTP,0

# Target: T13, Sla1-2, P32790
# Experiment: SPOT array
# Settings: median of control spots 712
row,Binder,SPOT intensity
1,GQYRRTIVIPRRFFT,8
2,TKFRISLGLPVGAIM,9
3,MKRSRPSRSIPYTTP,6

# Target: T14, Lsb3, P43603
# Experiment: SPOT array
# Settings: median of control spots 406
row,Binder,SPOT intensity
1,GQYRRTIVIPRRFFT,16
2,TKFRISLGLPVGAIM,28
3,MKRSRPSRSIPYTTP,1

# Target: T15, Bbc1, P47068
# Experiment: SPOT array
# Settings: median of control spots 796
row,Binder,SPOT intensity
1,GQYRRTIVIPRRFFT,258
2,TKFRISLGLPVGAIM,43
3,MKRSRPSRSIPYTTP,25

# Target: T16, Boi1, P38041
# Experiment: SPOT array
# Settings: median of control spots 1162
row,Binder,SPOT intensity
1,GQYRRTIVIPRRFFT,30
2,TKFRISLGLPVGAIM,1
3,MKRSRPSRSIPYTTP,3

# Target: T17, Bzz1-1, P38822
# Experiment: SPOT array
# Settings: median of control spots 4446
row,Binder,SPOT intensity
1,GQYRRTIVIPRRFFT,3
2,TKFRISLGLPVGAIM,0
3,MKRSRPSRSIPYTTP,1

# Target: T18, Abp1, P15891
# Experiment: SPOT array
# Settings: median of control spots 935
row,Binder,SPOT intensity
1,GQYRRTIVIPRRFFT,184
2,TKFRISLGLPVGAIM,289
3,MKRSRPSRSIPYTTP,32

# Target: T19, Fus1, P11710
# Experiment: SPOT array
# Settings: median of control spots 1200
row,Binder,SPOT intensity
1,GQYRRTIVIPRRFFT,48
2,TKFRISLGLPVGAIM,32
3,MKRSRPSRSIPYTTP,5

# Target: T20, Lsb4, P32793
# Experiment: SPOT array
# Settings: median of control spots 397
row,Binder,SPOT intensity
1,GQYRRTIVIPRRFFT,28
2,TKFRISLGLPVGAIM,46
3,MKRSRPSRSIPYTTP,6

# Target: GST
# Experiment: SPOT array
# Settings: median of control spots 978
row,Binder,SPOT intensity
1,GQYRRTIVIPRRFFT,5
2,TKFRISLGLPVGAIM,0
3,MKRSRPSRSIPYTTP,0

# Target: T21, Hse1, P38753
# Experiment: SPOT array
# Settings: median of control spots 1727
row,Binder,SPOT intensity
1,GQYRRTIVIPRRFFT,11
2,TKFRISLGLPVGAIM,8
3,MKRSRPSRSIPYTTP,14

# Target: Sho1, P40073
# Sequence (P40073 287-367): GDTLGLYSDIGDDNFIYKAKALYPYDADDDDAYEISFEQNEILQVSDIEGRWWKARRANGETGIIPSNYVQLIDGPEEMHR
# Experiment: SPOT array
# Settings: median of control spots 1148
row,Binder,SPOT intensity
1,GQYRRTIVIPRRFFT,124
2,TKFRISLGLPVGAIM,367
3,MKRSRPSRSIPYTTP,54

# Target: Bem1-2, P29366
# Sequence (P29366 139-227): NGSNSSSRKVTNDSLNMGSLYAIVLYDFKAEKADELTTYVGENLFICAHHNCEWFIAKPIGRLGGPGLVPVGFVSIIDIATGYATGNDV
# Experiment: SPOT array
# Settings: median of control spots 4347
row,Binder,SPOT intensity
1,GQYRRTIVIPRRFFT,17
2,TKFRISLGLPVGAIM,0
3,MKRSRPSRSIPYTTP,39
